Key:
Conditions in all cases: co-substrate SAM (100 µM in activity assay), 20 mM Tris-HCl pH 7.5, 37 °C, substrate 0.5-100 µM
[1] = substrate: O=C1C[C@@H](c2ccc(O)cc2)Oc2cc(O)cc(O)c21; assay: HPLC assay of 7-O-methylation; format: biochemical, Perilla frutescens
[2] = substrate: O=c1c(O)c(-c2ccc(O)cc2)oc2cc(O)cc(O)c12; assay: HPLC assay of 7-O-methylation; format: biochemical, Perilla frutescens
[3] = substrate: O=c1cc(-c2ccc(O)c(O)c2)oc2cc(O)cc(O)c12; assay: HPLC assay of 7-O-methylation; format: biochemical, Perilla frutescens
[4] = substrate: O=c1cc(-c2ccccc2)oc2cc(O)cc(O)c12; assay: HPLC assay of 7-O-methylation; format: biochemical, Perilla frutescens
[5] = substrate: O=C1C[C@@H](c2ccc(O)c(O)c2)Oc2cc(O)cc(O)c21; assay: HPLC assay of 7-O-methylation; format: biochemical, Perilla frutescens
purified protein = substrate: O=c1cc(-c2ccc(O)cc2)oc2cc(O)cc(O)c12; assay: purified protein

B1: PfOMT3 (Perilla frutescens) (protein)
chain: MKNSSTDEDLSIFAMQVATSSIVPRALKAVIELDLLEMMKKAGRPLSTSEMAAQIQATNPEAALMIDRILRVLIASNILECTTAASHGGAERLYSLAPVCKFFTKNDDGVSWAPLFLMIQDRVFTEAWDHVKDAIVEGGIPFNIAHGMSGFEYPATDPRYNKIFNQAMSDESTMFMHKILELYDGFDGLKSVVDVGGGIGASLKMIITKYPSIQAINFDLPHVIQNAPSHPGLEHRSGDMFVSVPTGDAILLKWIIHNWSDGHCLKLLKNCYEALPEKGKVIIADRILPETENYKEASASVDLAGDALMLTLFTGGKERAEAEFQALAKASGFKHFRKVCCAFSTWIMELYK
notes: primers encode MKNSSTD at start and IMELYK at end
**Q.** Which results are given for B1?
**A.** Km [1]: 13.40 ± 1.29 µM; Vmax [1]: 0.0517 µmol/min/mg; kcat [1]: 0.0353 s⁻¹; kcat/Km [1]: 2630 M⁻¹ s⁻¹; Km [2]: 17.88 ± 0.49 µM; Vmax [2]: 0.00581 µmol/min/mg; kcat [2]: 0.00397 s⁻¹; kcat/Km [2]: 222 M⁻¹ s⁻¹; Km [3]: 34.21 ± 4.65 µM; Vmax [3]: 0.00418 µmol/min/mg; kcat [3]: 0.00285 s⁻¹; kcat/Km [3]: 83.4 M⁻¹ s⁻¹; Km [4]: 1.31 ± 0.25 µM; Vmax [4]: 0.00205 µmol/min/mg; kcat [4]: 0.0014 s⁻¹; kcat/Km [4]: 1070 M⁻¹ s⁻¹; Km [5]: 13.08 ± 1.42 µM; Vmax [5]: 0.00784 µmol/min/mg; kcat [5]: 0.00535 s⁻¹; kcat/Km [5]: 409 M⁻¹ s⁻¹; Km (purified protein): 3.72 ± 0.05 µM; Vmax (purified protein): 0.0133 µmol/min/mg; kcat (purified protein): 0.0091 s⁻¹; kcat/Km (purified protein): 2440 M⁻¹ s⁻¹

— publication PMC7583084, “Biochemical Characterization of a Flavonoid O-methyltransferase from Perilla Leaves and Its Application in 7-Methoxyflavonoid Production” (Molecules, 2020)
